Measurements reported in paper PMC3097154 (2011).

Target: the molecule itself
Test: ITC

B1: HIV-1 capsid CTD CTD (protein)
chain: not shown
Kd: ~15 µM
